1 molecule from patent US20190256600A1 (ANAPTYSBIO, published 2019) can be followed below.

For assay [1], the target named is T1, dimeric cynomolgus monkey PD-1 fusion protein (fused with mouse IgG2a Fc) (cynomolgus monkey; mouse, UniProt B0LAJ3 25-170).
T1 construct: Soluble dimeric analyte in SPR; also called cynomolgus PD-1; soluble PD-1 fusion
In words: SPR (Biacore T200); cynomolgus monkey against human PD-1 fusion. The procedure:
(§1) SPR analyses were carried out using a Biacore T200 system and kinetic constants were determined using Biacore T200 Evaluation software. […] GE anti-human IgG (Fc-specific) was immobilized on a Biacore CM5 chip. An exemplary anti-PD-1 antibody (having heavy and light chains as set forth in SEQ ID NOs: 1 & 2, respectively) was then captured onto this surface […]. Next, dimeric human or cynomolgus monkey PD-1 fusion proteins (fused with mouse IgG2a Fc) in a two-fold serial dilution series were flowed over the captured exemplary antibody and dissociation was monitored. Capture and analyte binding were performed in HBS-EP+ buffer. Chips were regenerated between each run using 3 M MgCl₂. The resulting sensorgrams were fitted globally using a 1:1 binding model to calculate on- and off-rates (kassoc and kdissoc, respectively) and dissociation constants as a measure of overall affinity (KD).
On the technique in general: Surface plasmon resonance follows binding to a sensor surface in real time, without labels.

Assay [2] has as its target T2, full length native human PD-1 (on stably transfected CHO-K1 cells; native on human PBMCs) (human, UniProt Q15116 25-288).
T2 construct: whole, on cells; The same entry is used for the CHO-K1 transfectants and for PD-1 natively expressed on human PBMCs; also called cell-surface human PD-1; human PD-1 CHO-K1 cells
In words: flow cytometry competition on human PD-1 CHO-K1 cells; competitor PD-L2-mFc-DyL650. The procedure: (§2) In these studies, human PD-L1 and PD-L2 mouse IgG1 Fc fusion proteins were expressed, purified, and labeled with DyL650. The dose-response of binding of both PD-L1 and PD-L2 to PD-1 CHO-K1 cells was determined. To quantify blocking of ligand binding to PD-1 CHO-K1 cells, exemplary anti-PD-1 antibody or IgG4 control antibody in a 3-fold dilution series was pre-mixed with PD-L1-mFc-DyL650 or PD-L2-mFc-DyL650. The mixture was added to human PD-1 CHO-K1 cells (3E5 cells) and incubated at 4° C. Cells were washed once and re-suspended in the presence of propidium iodide and DyL650-PD-L1 or DyL650-PD-L2. Binding was analyzed on a BD FACSArray (BD Bioscience), excluding dead cells.

Assay [3] has as its target T3, full length native cynomolgus monkey PD-1 (on stably transfected CHO-K1 cells); native on cynomolgus monkey … (cynomolgus monkey, UniProt B0LAJ3 25-288).
T3 construct: The same entry is used for the CHO-K1 transfectants and for PD-1 natively expressed on cynomolgus monkey PBMCs; also called cell-surface cynomolgus monkey PD-1
In words: receptor occupancy by flow cytometry on cynomolgus monkey PBMCs (CD3+/IgG4+ cells, PE-labeled anti-IgG4), pre-incubation with a dilution series of the antibody [panel Cynomolgus monkey]. The text has this: (§3) For these studies, PBMCs from healthy human donors or cynomolgus monkeys were used. Human PBMCs were isolated from buffy coats obtained from the Indiana Blood Center and cynomolgus monkey PBMCs were isolated from peripheral blood collected aseptically into sodium heparin obtained from Worldwide Primates, Inc. In both cases, separation was by Ficoll using Ficoll-Paque 1.077 and cryopreserved for later use.
(§4) On the day of the experiments, the cryopreserved cells were thawed and the cell concentration was adjusted to 2E6 cells/ml prior to resting overnight at 37° C. in a humidified CO₂ incubator. Cells were then pelleted and re-suspended in 1 ml of media and recounted. The cell concentration was adjusted to 4E5 cells/150 μl of media. Human AB Serum (40 μl/ml) was added to block Fc receptors. After centrifugation, the cells were incubated with exemplary anti-PD-1 antibody at 4° C. PBMCs were then washed three times before being split into two conditions. One set of cells was incubated with exemplary anti-PD-1 antibody and the other set with IgG4 for 30 minutes at 4° C. The PBMCs were then washed four times prior to being stained with FITC-labeled anti-CD3 and PE-labeled anti-IgG4 antibodies. […] The number of CD3+/IgG4+ cells was determined for each parameter and the percentage of occupancy for the exemplary anti-PD-1 antibody was determined as follows: […]

The target of assay [4] is T3, full length native cynomolgus monkey …. In words: flow cytometry on CHO-K1 cells stably expressing full length cynomolgus monkey PD-1; PE anti-human IgG4 detection. The procedure: (§5) Flow cytometry studies were performed with CHO-K1 cell line clones in which either full length native human or cynomolgus monkey PD-1 was stably transfected. An exemplary anti-PD-1 antibody (having heavy and light chains as set forth in SEQ ID NOs: 1 & 2, respectively) was diluted in 3-fold dilutions. Dilutions of exemplary antibody were added to human or cynomolgus monkey PD-1 expressing CHO-K1 cells (1E5 cells) and incubated on ice. Cells were washed twice and incubated on ice with PE-conjugated mouse anti-human IgG4 to detect antibody binding. Cells were washed and resuspended in the presence of propidium iodide to exclude dead cells and fixed and analyzed for fluorescence on a BD FACSArray instrument (BD Biosciences). Data were analyzed for median fluorescence intensity, graphed, and curves fitted for EC₅₀ value calculation in GraphPad Prism (GraphPad Software, Inc.) using a non-linear (sigmoidal) regression analysis.
(In general: Flow cytometry measures light scatter and fluorescence of single cells or particles in a stream.)

Assay [5] concerns the target T1, dimeric cynomolgus monkey PD-1 fusion …. In words: SPR (Biacore T200); antibody captured on anti-human IgG Fc chip, dimeric PD-1-mouse IgG2a Fc as analyte, 1:1 model. On the procedure:
as §1

Assay [6] has as its target T4, dimeric human PD-1 fusion protein (fused with mouse IgG2a Fc) (human; mouse, UniProt Q15116 25-167, limits assumed).
T4 construct: Soluble dimeric analyte in SPR; also called soluble PD-1 fusion; not shown: mouse IgG2a Fc
The assay is described as above. On the procedure:
as §1

The target in assay [7] is T2, full length native human PD-1 (on …). In words: flow cytometry competition on human PD-1 CHO-K1 cells; competitor PD-L1-mFc-DyL650. The procedure:
as §2

Assay [8] shares this target. In words: flow cytometry on CHO-K1 cells stably expressing full length human PD-1; PE anti-human IgG4 detection. On the procedure: as §5
Assay [9] shares this target. In words: receptor occupancy by flow cytometry on human PBMCs (CD3+/IgG4+ cells, PE-labeled anti-IgG4), pre-incubation with a dilution series of the antibody [panel Human].
From the text: as §3, §4

A value given as a limit tells only on which side of the number the result lay.

T4 sequence (Q15116 25-167 limits assumed): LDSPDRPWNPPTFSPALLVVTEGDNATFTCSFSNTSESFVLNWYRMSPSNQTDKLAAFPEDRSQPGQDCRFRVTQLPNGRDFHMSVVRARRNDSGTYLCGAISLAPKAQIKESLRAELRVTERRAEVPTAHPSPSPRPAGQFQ
T1 sequence (B0LAJ3 entry or part of it limits assumed): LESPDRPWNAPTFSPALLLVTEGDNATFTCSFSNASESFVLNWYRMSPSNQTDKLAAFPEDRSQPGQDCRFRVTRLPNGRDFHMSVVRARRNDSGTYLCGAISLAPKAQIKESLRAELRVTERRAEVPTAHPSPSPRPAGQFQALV
T2 sequence (Q15116 25-288): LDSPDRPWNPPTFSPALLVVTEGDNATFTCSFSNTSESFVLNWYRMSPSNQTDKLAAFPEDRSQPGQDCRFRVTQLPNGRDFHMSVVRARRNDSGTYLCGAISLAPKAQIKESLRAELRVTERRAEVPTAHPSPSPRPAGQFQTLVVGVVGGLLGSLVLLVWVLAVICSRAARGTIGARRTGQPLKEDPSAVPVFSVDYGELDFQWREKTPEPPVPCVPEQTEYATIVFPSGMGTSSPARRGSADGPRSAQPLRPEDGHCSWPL
T3 sequence (B0LAJ3 entry or part of it limits assumed): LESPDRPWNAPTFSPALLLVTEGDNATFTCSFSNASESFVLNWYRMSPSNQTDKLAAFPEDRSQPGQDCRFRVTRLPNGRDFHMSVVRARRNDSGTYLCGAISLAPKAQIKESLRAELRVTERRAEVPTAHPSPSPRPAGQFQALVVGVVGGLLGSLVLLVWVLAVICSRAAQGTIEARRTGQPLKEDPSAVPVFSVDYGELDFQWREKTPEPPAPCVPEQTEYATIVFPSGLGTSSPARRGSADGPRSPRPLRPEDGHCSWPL

B1: exemplary anti-PD-1 antibody (having heavy and light chains as set forth in SEQ ID NOs: 1 & 2, respectively) (antibody, human IgG4 S228P, kappa, V domains shown)
VH: EVQLLESGGGLVQPGGSLRLSCAASGFTFSSYDMSWVRQAPGKGLEWVSTISGGGSYTYYQDSVKGRFTISRDNSKNTLYLQMNSLRAEDTAVYYCASPYYAMDYWGQGTTVTVSS
VL: DIQLTQSPSFLSAYVGDRVTITCKASQDVGTAVAWYQQKPGKAPKLLIYWASTLHTGVPSRFSGSGSGTEFTLTISSLQPEDFATYYCQHYSSYPWTFGQGTKLEIKR
modifications: occupied N-glycosylation site at asparagine residue 293 of SEQ ID NO:1
notes: Humanized IgG4 (human IGHG4*01) with kappa light chain (IGKC*01); also called exemplary humanized monoclonal anti-PD-1 antibody; anti-PD-1 mAb
For B1, in assay [1], the “fold difference in KD against human PD-1” value was less than 2 fold. In addition, the IC50 in assay [2] was found to be 1.5 nM; in assay [7], 1.8 nM. The “EC50 (read off the curve)” value was roughly 100 ng/mL in assay [3] and roughly 200 ng/mL in assay [9]. Moreover, the results for the EC50 in assay [4] and in [8] were 3.4 nM and 2 nM, respectively. The dissociation constant Kd in assay [5] was 0.53 nM; in assay [6], 0.3 nM. Besides, the figures for the koff in assay [5] and in assay [6] were 0.00023 s⁻¹ and 0.00017 s⁻¹, respectively. Also, the kon in [5] was 430000 M⁻¹ s⁻¹; in [6] it was 570000 M⁻¹ s⁻¹.

The IC50 is the concentration needed to halve the response being measured. The term EC50 (read off the curve) denotes the concentration giving half of the maximal effect. As a reminder, the EC50 is the concentration at which the effect is half-maximal. In general, Kd refers to the equilibrium constant for the complex coming apart. As a reminder, the koff is the rate constant with which the complex falls apart. One may read the kon as the rate constant with which the complex forms.
